Source: paper PMC2787876 (Journal of molecular biology, 2009)
Substitutions are numbered along the chain they refer to. Each block holds one binder with its values, some of them ahead of it.

Target: light activated unphosphorylated rhodopsin (UniProt P02699 1-348, retinal chromophore, light-activated)
Experiment: dissociation of the complex after dilution

Chain of light activated unphosphorylated rhodopsin (P02699 whole entry): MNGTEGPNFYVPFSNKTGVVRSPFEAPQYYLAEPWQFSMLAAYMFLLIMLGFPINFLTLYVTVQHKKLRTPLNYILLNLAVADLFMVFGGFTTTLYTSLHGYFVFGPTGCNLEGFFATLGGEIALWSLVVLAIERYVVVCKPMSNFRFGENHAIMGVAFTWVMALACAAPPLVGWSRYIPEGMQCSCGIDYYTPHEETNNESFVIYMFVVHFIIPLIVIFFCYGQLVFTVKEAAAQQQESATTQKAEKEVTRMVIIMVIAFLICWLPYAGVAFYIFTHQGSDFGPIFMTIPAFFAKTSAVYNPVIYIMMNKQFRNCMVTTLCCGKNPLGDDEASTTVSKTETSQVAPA

- half-life of the complex (t1/2): 1.2 ± 0.117 h
B1: arrestin1 2A-3A-h3A (natural protein, bovine, UniProt P08168 1-404, looked up)
chain: MKANKPAPNHVIFKKISRDKSVTIYLGKRDYIDHVERVEPVDGAVAVDPELVKGKRVYVSLTCAFRYGQEDIDVMGLSFRRDLYFSQVQVFPPVGASGATTRAQESAIKKAGANTYPFLLTFPDYLPCSVMLQPAPQDVGKSCGVDFEIKAFATHSTDVEEDKIPKKSSVRLLIRKVQHAPRDMGPQPRAEASWQFFMSDKPLRLAVSLSKEIYYHGEPIPVTVAVTNSTEKTVKKIKVLVEQVTNVVLYSSDYYIKTVAAEEAQEKVPPNSSLTKTLTLVPLLANNRERRGIALDGKIKHEDTNLASSTIIKEGIDKTVMGILVSYQIKVKLTVSGLLGELTSSEVATEVPFRLMHPQPEDPDTAKESFQDENAAAEEFARQNLKDAGEYKEEKTDQEAAMDE
modifications: [3H]leucine and [14C]leucine incorporated

- half-life of the complex (t1/2): 1.28 ± 0.15 h
B2: arrestin1 h3A on the background of the 3A mutation (natural protein, bovine, UniProt P08168 1-404, looked up)
chain: B1 chain with A44V, A46L
modifications: [3H]leucine and [14C]leucine incorporated
